According to publication PMC11580166, “VPS26 Moonlights as a β-Arrestin-like Adapter for a 7-Transmembrane RGS Protein in Arabidopsis thaliana” (Biochemistry, 2024):
Where no end group is shown, it is not given here. [ ]: non-standard residue; d: D form. pS = N[C@@H](COP(=O)(O)O)C(=O)O

B2: VPS26A/VPS26B heterodimer (complex, Arabidopsis thaliana)
chain 1: MNYLLGAFKPACNISITFTDGKNRKQVPTKKDNGQIVMNPLFQSQETIAGKINIEPYQGKKVEHNGVKVELLGQIEMYFDRGNFYDFTSLVREIDVPGEIYERKTYPFEFSSVEMPYETYNGVNVRLRYVLKVTVTRGYAGSIVEYQDFVVRNYVPLPPINNSIKMEVGIEDCLHIEFEYNKSKYHLKDVILGKIYFLLVRIKIKNMDLEIRRRESTGAGANTHVETETLAKFELMDGAPVRGESIPVRVFLTPYDLTPTHKNINNKFSVKYYLNLVLVDEEDRRYFKQQEITLYRLKEETS
chain 2: MNYLLGAFKPACNISITFSDGKNRKQVPMKKENGQTALVPLFHSQDTISGKVCIEPYQGKKVEHNGVKVELLGQIEMYFDRGNFYDFTSLVRELDVPGEIYERKTYPFEFPTVEMPYETYNGVNVRLRYVLKVTVTRGYAGSILEYQELVVRNYAPLPDINNSIKMEVGIEDCLHIEFEYNKSKYHLKDVILGKIYFLLVRIKMKNMDLEIRRRESTGAGANTHVETETLAKFELMDGTPVRGESIPVRLFLAPYDLTPTHRNINNKFSVKYYLNLVLVDEEDRRYFKQQEITLYRLKEDASS
notes: AtVPS26A, Arabidopsis thaliana, UniProt Q9FJD0, as m1; AtVPS26B, Arabidopsis thaliana, UniProt Q9T091, as m2; In the number-and-brightness rows the id stands for the endogenous heterodimer of the plant; also called VPS26A/B; VPS26A/B dimer; source: E. coli BL21 (DE3), each subunit purified, mixed; copies: 1 + 1
B3: Vacuolar Protein Sorting-Associated 26A (AtVPS26A) (natural protein, Arabidopsis thaliana, UniProt Q9FJD0 1-302, looked up)
chain: MNYLLGAFKPACNISITFTDGKNRKQVPTKKDNGQIVMNPLFQSQETIAGKINIEPYQGKKVEHNGVKVELLGQIEMYFDRGNFYDFTSLVREIDVPGEIYERKTYPFEFSSVEMPYETYNGVNVRLRYVLKVTVTRGYAGSIVEYQDFVVRNYVPLPPINNSIKMEVGIEDCLHIEFEYNKSKYHLKDVILGKIYFLLVRIKIKNMDLEIRRRESTGAGANTHVETETLAKFELMDGAPVRGESIPVRVFLTPYDLTPTHKNINNKFSVKYYLNLVLVDEEDRRYFKQQEITLYRLKEETS
notes: AtVPS26A, Arabidopsis thaliana, UniProt Q9FJD0, gene At5g53530; Fluorescently labelled (Monolith RED-NHS or RED-MALEIMIDE kit) when it was the labelled partner in MST; the His-SUMO tag may have been kept in mass photometry (surmise); also called AtVSP26A; source: E. coli BL21 (DE3), purified (nickel resin, ULP1 cleavage, second nickel, SEC)

Experiments:
[1] = target: AtGPA1 (Arabidopsis thaliana) (UniProt P18064); details: cited from earlier work
[2] = target: B3; assay: MST; 20 nM fluorescence-labelled protein (RED-NHS or RED-MALEIMIDE), ligand dilution series, 25 °C, PBS pH 7.4, 0.05% Tween-20; apparent Kd; averages of 2 to 4 experiments; details: both partners purified
[3] = target: T1, Full-length AtRGS1 with a phosphorylated C-tail peptide ligated by sortase A (Arabidopsis thaliana, phosphoserine at 428, 431 and 435); assay: mass photometry; purified AtRGS1 in detergent micelle (mixture of about 50% tail-ligated and truncated protein) with VPS26A/B heterodimer added; details: both partners purified
T1 chain: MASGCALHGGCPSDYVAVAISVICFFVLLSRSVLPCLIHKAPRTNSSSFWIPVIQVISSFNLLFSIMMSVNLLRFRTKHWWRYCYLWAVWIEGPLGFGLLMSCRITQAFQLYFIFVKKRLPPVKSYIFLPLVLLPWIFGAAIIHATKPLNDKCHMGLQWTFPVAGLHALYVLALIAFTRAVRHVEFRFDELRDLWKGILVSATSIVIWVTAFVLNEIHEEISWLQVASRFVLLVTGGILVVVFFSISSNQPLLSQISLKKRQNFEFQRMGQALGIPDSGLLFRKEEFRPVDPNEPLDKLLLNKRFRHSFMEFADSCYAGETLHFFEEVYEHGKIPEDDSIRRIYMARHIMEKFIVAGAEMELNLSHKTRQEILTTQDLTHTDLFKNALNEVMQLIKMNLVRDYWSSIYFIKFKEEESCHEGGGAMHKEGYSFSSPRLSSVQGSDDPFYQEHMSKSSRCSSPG

[4] = target: T2, Vacuolar Protein Sorting-Associated 26B (AtVPS26B) (Arabidopsis thaliana, UniProt Q9T091 1-303); assay: MST; 20 nM fluorescence-labelled protein (RED-NHS or RED-MALEIMIDE), ligand dilution series, 25 °C, PBS pH 7.4, 0.05% Tween-20; apparent Kd; averages of 2 to 4 experiments; details: both partners purified
T2 construct: AtVPS26B, Arabidopsis thaliana, UniProt Q9T091, gene At4g27690; the His-SUMO tag may have been kept in mass photometry (surmise); also called VSP26B; source: E. coli BL21 (DE3), purified (nickel resin, ULP1 cleavage, second nickel, SEC)

[5] = target: T3, Vacuolar Protein Sorting-Associated 26B (AtVPS26B) (Arabidopsis thaliana, UniProt Q9T091 1-303); assay: ITC
T3 chain: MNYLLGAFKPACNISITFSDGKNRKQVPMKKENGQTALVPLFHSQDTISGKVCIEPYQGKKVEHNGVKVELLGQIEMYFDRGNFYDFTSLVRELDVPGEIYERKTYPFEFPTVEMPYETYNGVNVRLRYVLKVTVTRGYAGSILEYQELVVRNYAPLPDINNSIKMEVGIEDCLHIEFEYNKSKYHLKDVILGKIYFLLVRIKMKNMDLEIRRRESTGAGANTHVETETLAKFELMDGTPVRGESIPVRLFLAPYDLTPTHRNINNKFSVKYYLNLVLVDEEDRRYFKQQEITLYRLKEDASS

[6] = target: T4, VPS26A/VPS26B heterodimer (Arabidopsis thaliana, UniProt Q9FJD0 1-302; Q9T091 1-303); assay: ITC
T4 chain 1: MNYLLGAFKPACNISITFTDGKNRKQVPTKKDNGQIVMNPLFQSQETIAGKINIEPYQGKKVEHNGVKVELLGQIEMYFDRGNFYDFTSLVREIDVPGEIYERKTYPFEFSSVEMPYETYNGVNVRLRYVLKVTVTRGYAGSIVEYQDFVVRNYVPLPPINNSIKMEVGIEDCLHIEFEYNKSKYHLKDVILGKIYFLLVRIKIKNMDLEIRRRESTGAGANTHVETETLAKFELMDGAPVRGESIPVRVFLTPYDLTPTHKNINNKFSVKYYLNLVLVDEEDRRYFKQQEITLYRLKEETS
T4 chain 2: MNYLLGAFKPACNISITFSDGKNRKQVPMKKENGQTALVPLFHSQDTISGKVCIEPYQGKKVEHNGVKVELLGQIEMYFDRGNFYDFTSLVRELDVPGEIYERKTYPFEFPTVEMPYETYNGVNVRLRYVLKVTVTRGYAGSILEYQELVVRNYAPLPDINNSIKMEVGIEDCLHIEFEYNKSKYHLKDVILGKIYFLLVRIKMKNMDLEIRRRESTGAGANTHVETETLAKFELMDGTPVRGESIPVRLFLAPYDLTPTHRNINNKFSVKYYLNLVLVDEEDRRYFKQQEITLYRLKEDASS

[7] = target: T5, Vacuolar Protein Sorting-Associated 26A (AtVPS26A) (Arabidopsis thaliana, UniProt Q9FJD0 1-302); assay: ITC
T5 chain: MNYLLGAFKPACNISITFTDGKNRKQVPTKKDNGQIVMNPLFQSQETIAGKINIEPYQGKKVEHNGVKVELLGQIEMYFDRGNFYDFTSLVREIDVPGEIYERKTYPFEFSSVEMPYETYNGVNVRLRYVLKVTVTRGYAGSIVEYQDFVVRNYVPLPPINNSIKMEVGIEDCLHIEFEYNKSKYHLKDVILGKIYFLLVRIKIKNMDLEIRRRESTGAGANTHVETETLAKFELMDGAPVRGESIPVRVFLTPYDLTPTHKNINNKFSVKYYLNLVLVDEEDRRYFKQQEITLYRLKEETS

[8] = target: Vacuolar Protein Sorting-Associated 26B (AtVPS26B) (Arabidopsis thaliana) (UniProt Q9T091); assay: MST; 20 nM fluorescence-labelled protein (RED-NHS or RED-…), ligand dilution series, 25 °C, PBS pH 7.4, 0.05% Tween-20; apparent Kd; averages of 2 to 4 experiments
[9] = target: Vacuolar Protein Sorting-Associated 26A (AtVPS26A) (Arabidopsis thaliana) (UniProt Q9FJD0); assay: as above
[10] = target: T3, Vacuolar Protein Sorting-Associated 26B …; assay: ITC; phosphorylated S428, S431, S435
[11] = target: T4, VPS26A/VPS26B heterodimer; assay: ITC; phosphorylated S428, S431, S435
[12] = target: T5, Vacuolar Protein Sorting-Associated 26A …; assay: ITC; phosphorylated S428, S431, S435
[13] = target: B2; assay: MST; 20 nM fluorescence-labelled protein (RED-NHS or RED-MALEIMIDE), ligand dilution series, 25 °C, PBS pH 7.4, 0.05% Tween-20; apparent Kd; averages of 2 to 4 experiments; details: both partners purified

Sequence of AtGPA1 (Arabidopsis thaliana) (P18064 2-383): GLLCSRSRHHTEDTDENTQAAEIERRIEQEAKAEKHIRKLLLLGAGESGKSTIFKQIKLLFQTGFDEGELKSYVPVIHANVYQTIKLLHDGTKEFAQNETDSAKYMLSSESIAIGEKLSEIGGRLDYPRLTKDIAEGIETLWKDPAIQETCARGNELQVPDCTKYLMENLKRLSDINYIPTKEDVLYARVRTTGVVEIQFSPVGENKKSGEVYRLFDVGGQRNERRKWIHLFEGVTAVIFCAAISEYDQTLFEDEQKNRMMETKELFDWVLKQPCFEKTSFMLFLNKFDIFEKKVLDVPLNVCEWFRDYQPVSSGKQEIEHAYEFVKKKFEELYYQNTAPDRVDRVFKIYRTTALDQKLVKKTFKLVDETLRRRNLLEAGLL

Question: For AtRGS1 (from UniProt Q8H1F2), which Kd [1] is on record?
Answer: Its Kd is 125 nM.

B1: VPS26B Y85A/E93A mutant (natural protein, Arabidopsis thaliana, UniProt Q9T091 1-303, looked up)
chain: MNYLLGAFKPACNISITFSDGKNRKQVPMKKENGQTALVPLFHSQDTISGKVCIEPYQGKKVEHNGVKVELLGQIEMYFDRGNFADFTSLVRALDVPGEIYERKTYPFEFPTVEMPYETYNGVNVRLRYVLKVTVTRGYAGSILEYQELVVRNYAPLPDINNSIKMEVGIEDCLHIEFEYNKSKYHLKDVILGKIYFLLVRIKMKNMDLEIRRRESTGAGANTHVETETLAKFELMDGTPVRGESIPVRLFLAPYDLTPTHRNINNKFSVKYYLNLVLVDEEDRRYFKQQEITLYRLKEDASS
notes: AtVPS26B, Arabidopsis thaliana, UniProt Q9T091, with Y85A and E93A
Question: With B1 as the molecule, how does the “fold lower heterodimerization than VPS26B wildtype” value [2] read?
Answer: Its value is about 10 fold.

Question: With B2 as the molecule, how does the “stoichiometry N” value [3] read?
Answer: Its value is 1.

Question: For B3, which Kd [4] is on record?
Answer: The Kd was about 18 nM.

B4: AtRGS1 RGS domain plus C-terminal tail (residues 284-459) (domain or fragment)
chain: KEEFRPVDPNEPLDKLLLNKRFRHSFMEFADSCYAGETLHFFEEVYEHGKIPEDDSIRRIYMARHIMEKFIVAGAEMELNLSHKTRQEILTTQDLTHTDLFKNALNEVMQLIKMNLVRDYWSSIYFIKFKEEESCHEAMHKEGYSFSSPRLSSVQGSDDPFYQEHMSKSSRCSSPG
Question: For B4, which Kd [5] is on record?
Answer: Its Kd is 40 nM.

Question: What about the Kd [6] of the same molecule?
Answer: Its Kd is 22 nM.

Question: What about the Kd [7] of the same molecule?
Answer: The Kd was 38 nM.

Question: And the Kd [8]?
Answer: The Kd was 35 nM.

Question: And the Kd [9]?
Answer: The Kd was 34 nM.

B5: AtRGS1 C tail peptide (A421-G459), unphosphorylated (peptide)
peptide: GGGAMHKEGYSFSSPRLSSVQGSDDPFYQEHMSKSSRCSSPG
notes: N-terminal GGG added to the peptide; AtRGS1 C-terminal tail, Arabidopsis thaliana, UniProt Q8H1F2, residues A421-G459; Purity 99%; also called unphosphorylated C-tail; source: synthetic peptide (UNC Peptide Core Facility)
Question: Which results are given for B5?
Answer: Kd [6]: 63 nM; Kd [7]: 317 nM; Kd [4]: 253 nM; Kd [2]: 217 nM

B6: AtRGS1 pSer C tail peptide (A421-G459, phosphorylated at S428, S431, S435) (peptide)
peptide: GGGAMHKEGY[pS]FS[pS]PRL[pS]SVQGSDDPFYQEHMSKSSRCSSPG
notes: N-terminal GGG added to the peptide; AtRGS1 C-terminal tail, Arabidopsis thaliana, UniProt Q8H1F2, residues A421-G459; Purity 87%; also called RGS1 pC-tail; ptail; source: synthetic peptide (UNC Peptide Core Facility)
Question: With B6 as the molecule, how does the Kd [10] read?
Answer: Its Kd is 17 nM.

Question: What about the Kd [11] of the same molecule?
Answer: The Kd was 12 nM.

Question: What about the Kd [12] of the same molecule?
Answer: The Kd was 71 nM.

Question: And the “fold higher affinity than the unphosphorylated C-tail” value [13]?
Answer: The value was about 5 fold.

B7: AtRGS1 truncated C tail peptide (A421-E447), unphosphorylated (peptide)
peptide: GGGAMHKEGYSFSSPRLSSVQGSDDPFYQE
notes: N-terminal GGG added to the peptide; AtRGS1 C-terminal tail, Arabidopsis thaliana, UniProt Q8H1F2, residues A421-E447; also called ΔC tail; RGS1 delta C-tail; source: synthetic peptide (Tufts University Peptide Core Facility)
Question: For B7, which Kd [6] is on record?
Answer: The Kd was 123 nM.

Question: Does B7 bind [13]?
Answer: Result: binds
